Assay results published in patent publication US20230190900 (published 2023).
One block for each binder: values may come before it.

Legend:
cynomolgus FcRn = molecular target: T1, cynomolgus FcRn (cynomolgus, UniProt Q8SPV9); assay: SPR, pH 6.0
T1 chain 1: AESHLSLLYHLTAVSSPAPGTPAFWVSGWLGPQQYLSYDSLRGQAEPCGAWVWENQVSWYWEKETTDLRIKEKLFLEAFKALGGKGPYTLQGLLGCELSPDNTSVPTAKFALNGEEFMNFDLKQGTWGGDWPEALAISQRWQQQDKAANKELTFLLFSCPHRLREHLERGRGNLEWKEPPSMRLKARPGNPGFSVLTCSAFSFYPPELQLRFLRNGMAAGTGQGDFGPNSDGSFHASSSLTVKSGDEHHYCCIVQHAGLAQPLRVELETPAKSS
T1 chain 2: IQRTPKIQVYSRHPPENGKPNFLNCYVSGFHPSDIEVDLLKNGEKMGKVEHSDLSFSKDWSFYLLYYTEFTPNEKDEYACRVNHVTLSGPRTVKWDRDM

[1] = molecular target: T2, human FcγRIIIb (NA1) CD16B (human, UniProt O75015); assay: SPR
T2 chain: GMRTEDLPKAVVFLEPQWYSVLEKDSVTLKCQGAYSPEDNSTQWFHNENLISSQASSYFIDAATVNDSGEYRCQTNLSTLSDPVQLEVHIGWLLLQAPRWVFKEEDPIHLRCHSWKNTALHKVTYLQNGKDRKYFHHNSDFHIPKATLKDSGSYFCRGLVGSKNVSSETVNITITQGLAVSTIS

murine FcRn = molecular target: T3, murine FcRn (mouse, UniProt Q61559); assay: SPR, pH 6.0
T3 chain 1: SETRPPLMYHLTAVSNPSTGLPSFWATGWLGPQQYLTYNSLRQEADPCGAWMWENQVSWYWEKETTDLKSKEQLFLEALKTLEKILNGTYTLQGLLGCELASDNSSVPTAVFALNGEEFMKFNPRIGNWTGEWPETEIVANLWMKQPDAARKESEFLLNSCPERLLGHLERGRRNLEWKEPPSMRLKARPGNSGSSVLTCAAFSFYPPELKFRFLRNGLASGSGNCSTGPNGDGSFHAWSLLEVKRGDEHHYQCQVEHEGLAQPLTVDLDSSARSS
T3 chain 2: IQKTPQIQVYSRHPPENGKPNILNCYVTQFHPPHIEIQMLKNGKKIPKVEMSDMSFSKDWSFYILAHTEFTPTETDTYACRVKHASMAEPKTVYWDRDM

murine FcγRI = molecular target: T4, murine FcγRI (mouse, UniProt P26151); assay: SPR
T4 chain: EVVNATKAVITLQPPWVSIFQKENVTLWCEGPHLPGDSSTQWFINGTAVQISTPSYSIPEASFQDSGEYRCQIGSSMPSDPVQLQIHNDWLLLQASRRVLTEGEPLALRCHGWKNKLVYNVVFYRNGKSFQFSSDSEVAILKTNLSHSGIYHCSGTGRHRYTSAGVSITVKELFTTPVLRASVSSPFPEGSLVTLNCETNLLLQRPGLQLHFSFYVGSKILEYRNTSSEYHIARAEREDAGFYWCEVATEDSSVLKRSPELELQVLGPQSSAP

human FcγRIIc (CD32C) = molecular target: T5, human FcγRIIc (CD32C) (human, UniProt P31995); assay: SPR
T5 chain: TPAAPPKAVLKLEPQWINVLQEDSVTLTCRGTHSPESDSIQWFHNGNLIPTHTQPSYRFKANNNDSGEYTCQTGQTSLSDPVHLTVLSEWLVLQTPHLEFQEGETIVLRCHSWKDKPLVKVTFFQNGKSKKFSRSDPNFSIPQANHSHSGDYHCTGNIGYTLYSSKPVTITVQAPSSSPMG

murine FcγRIV (CD16-2) = molecular target: T6, murine FcγRIV (CD16-2) (mouse, UniProt A0A0B4J1G0); assay: SPR
T6 chain: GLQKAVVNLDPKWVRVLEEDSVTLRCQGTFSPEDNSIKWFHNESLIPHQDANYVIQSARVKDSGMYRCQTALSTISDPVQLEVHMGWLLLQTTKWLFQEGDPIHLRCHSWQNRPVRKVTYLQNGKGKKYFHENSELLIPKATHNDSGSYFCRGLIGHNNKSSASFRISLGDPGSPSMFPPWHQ

human FcRn = human FcRn (human, UniProt P55899); assay: SPR, pH 6.0
human FcγRI (CD64) = molecular target: T7, human FcγRI (CD64) (human, UniProt P12314); assay: SPR
T7 chain: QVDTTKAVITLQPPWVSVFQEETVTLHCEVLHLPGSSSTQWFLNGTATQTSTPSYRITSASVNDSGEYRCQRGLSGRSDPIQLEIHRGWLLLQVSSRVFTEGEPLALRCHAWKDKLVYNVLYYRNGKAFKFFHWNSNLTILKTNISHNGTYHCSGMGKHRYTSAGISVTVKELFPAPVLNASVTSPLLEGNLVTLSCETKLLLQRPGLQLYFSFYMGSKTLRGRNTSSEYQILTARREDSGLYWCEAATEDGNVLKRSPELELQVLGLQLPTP

murine FcγRIII = molecular target: T8, murine FcγRIII (mouse, UniProt P08508); assay: SPR
T8 chain: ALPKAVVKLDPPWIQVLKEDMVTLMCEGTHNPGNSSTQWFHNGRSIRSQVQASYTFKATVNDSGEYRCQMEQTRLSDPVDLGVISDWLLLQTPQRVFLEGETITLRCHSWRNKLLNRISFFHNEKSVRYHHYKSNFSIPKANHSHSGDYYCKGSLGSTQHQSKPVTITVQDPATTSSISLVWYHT

[2] = molecular target: T9, cynomolgus FcγRIIa (CD32A) (cynomolgus); assay: SPR
T9 chain: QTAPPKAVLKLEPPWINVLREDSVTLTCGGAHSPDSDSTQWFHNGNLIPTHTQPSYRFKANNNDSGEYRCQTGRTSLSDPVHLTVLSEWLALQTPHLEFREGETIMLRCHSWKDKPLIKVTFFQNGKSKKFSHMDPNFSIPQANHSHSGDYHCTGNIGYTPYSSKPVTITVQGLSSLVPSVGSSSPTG

human FcγRIIb (CD32B) = molecular target: T10, human FcγRIIb (CD32B) (human, UniProt P31994); assay: SPR
T10 chain: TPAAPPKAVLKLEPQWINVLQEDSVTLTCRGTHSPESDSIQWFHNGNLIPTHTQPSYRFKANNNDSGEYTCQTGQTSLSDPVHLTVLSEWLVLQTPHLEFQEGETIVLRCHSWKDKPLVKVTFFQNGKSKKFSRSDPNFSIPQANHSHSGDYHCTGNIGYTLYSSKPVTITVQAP

murine FcγRIIb = molecular target: T11, murine FcγRIIb (mouse, UniProt P08101); assay: SPR
T11 chain: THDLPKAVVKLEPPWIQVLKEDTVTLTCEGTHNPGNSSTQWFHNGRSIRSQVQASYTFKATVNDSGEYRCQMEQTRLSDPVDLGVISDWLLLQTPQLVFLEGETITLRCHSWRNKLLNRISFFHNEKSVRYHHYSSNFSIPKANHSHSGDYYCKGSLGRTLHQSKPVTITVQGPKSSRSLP

human FcγRIIa (CD32A) = molecular target: T12, human FcγRIIa (CD32A) (human, UniProt P12318); assay: SPR
T12 chain: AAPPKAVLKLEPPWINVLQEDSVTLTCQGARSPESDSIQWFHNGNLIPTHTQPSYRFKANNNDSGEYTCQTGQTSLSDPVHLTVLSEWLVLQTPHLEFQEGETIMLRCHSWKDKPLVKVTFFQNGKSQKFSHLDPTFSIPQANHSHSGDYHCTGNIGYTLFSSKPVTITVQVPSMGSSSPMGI

Kd (cynomolgus FcRn): 842 nM | binding result [1]: no binding | Kd (murine FcRn): 180 nM | binding result (murine FcγRI): no binding | binding result (human FcγRIIc (CD32C)): no binding | binding result (murine FcγRIV (CD16-2)): no binding | Kd (human FcRn): 430 nM | binding result (human FcγRI (CD64)): no binding | binding result (murine FcγRIII): no binding | binding result [2]: no binding | binding result (human FcγRIIb (CD32B)): no binding | binding result (murine FcγRIIb): no binding | binding result (human FcγRIIa (CD32A)): no binding
B1: scFv-IgAb_02 (full) (antibody)
chain 1: QVQLVQSGAEVKKPGESLKVSCKASGYTFTSYYMHWVRQAPGQGLEWMGIINPSGGSTSYAQKFQGRVTMTRDTSTSTVYMELSSLRSEDTAVYYCARGSAYYYDFADYWGQGTLVTVSSASTKGPSVFPLAPSSKSTSGGTAALGCLVKDYFPEPVTVSWNSGALTSGVHTFPAVLQSSGLYSLSSVVTVPSSSLGTQTYICNVNHKPSNTKVDKKVEPKSCDKTHTCPPCPAPEFEGGPSVFLFPPKPKDTLMISRTPEVTCVVVAVSHEDPEVKFNWYVDGVEVHNAKTKPREEQYNSTYRVVSVLTVLHQDWLNGKEYKCKVSNKALPAPIEKTISKAKGQPREPQVYTLPPSREEMTKNQVSLTCLVKGFYPSDIAVEWESNGQPENNYKTTPPVLDSDGSFFLYSKLTVDKSRWQQGNVFSCSVMHEALHNHYTQKSLSLSPGGGGGSGGGGSQVQLQESGPGLVKPSETLSLTCTVSGGSVSSGSYYWSWIRQPPGKGLEWIGYIYYSGSTNYNPSLKSRVTISVDTSKNQFSLKLSSVTAADTAVYYCARNPISIPAFDIWGQGTMVTVSSGGSGGSGGSGGSGGSGGSQPVLTQPPSVSVAPGKTARITCGGNNIGSKSVHWYQQKPGQAPVLVIYYDSDRPSGIPERFSGSNSGNTATLTISRVEAGDEADYYCQVWDTSSDHVLFGGGTKLTVL
chain 2: SYVLTQPSSVSVAPGQTATISCGGHNIGSKNVHWYQQRPGQSPVLVIYQDNKRPSGIPERFSGSNSGNTATLTISGTQAMDEADYYCQVWDNYSVLFGGGTKLTVLGQPKAAPSVTLFPPSSEELQANKATLVCLISDFYPGAVTVAWKADSSPVKAGVETTTPSKQSNNKYAASSYLSLTPEQWKSHRSYSCQVTHEGSTVEKTVAPTECS

Kd (cynomolgus FcRn): 268 nM | binding result [1]: no binding | Kd (murine FcRn): 121 nM | binding result (murine FcγRI): no binding | binding result (human FcγRIIc (CD32C)): no binding | binding result (murine FcγRIV (CD16-2)): no binding | Kd (human FcRn): 410 nM | binding result (human FcγRI (CD64)): no binding | binding result (murine FcγRIII): no binding | binding result [2]: no binding | binding result (human FcγRIIb (CD32B)): no binding | binding result (murine FcγRIIb): no binding | binding result (human FcγRIIa (CD32A)): no binding
B2: Bi-scFv-Fc_02 (full) (antibody)
chain 1: SYVLTQPSSVSVAPGQTATISCGGHNIGSKNVHWYQQRPGQSPVLVIYQDNKRPSGIPERFSGSNSGNTATLTISGTQAMDEADYYCQVWDNYSVLFGGGTKLTVLGGSGGSGGSGGSGGSGGSGGSQVQLVQSGAEVKKPGESLKVSCKASGYTFTSYYMHWVRQAPGQGLEWMGIINPSGGSTSYAQKFQGRVTMTRDTSTSTVYMELSSLRSEDTAVYYCARGSAYYYDFADYWGQGTLVTVSSEPKSCDKTHTCPPCPAPEFEGGPSVFLFPPKPKDTLMISRTPEVTCVVVAVSHEDPEVKFNWYVDGVEVHNAKTKPREEQYNSTYRVVSVLTVLHQDWLNGKEYKCKVSNKALPAPIEKTISKAKGQPREPQVYTLPPSREEMTKNQVSLTCLVKGFYPSDIAVEWESNGQPENNYKTTPPVLDSDGSFFLYSKLTVDKSRWQQGNVFSCSVMHEALHNHYTQKSLSLSPGGGGGSGGGGSQVQLQESGPGLVKPSETLSLTCTVSGGSVSSGSYYWSWIRQPPGKGLEWIGYIYYSGSTNYNPSLKSRVTISVDTSKNQFSLKLSSVTAADTAVYYCARNPISIPAFDIWGQGTMVTVSSGGSGGSGGSGGSGGSGGSQPVLTQPPSVSVAPGKTARITCGGNNIGSKSVHWYQQKPGQAPVLVIYYDSDRPSGIPERFSGSNSGNTATLTISRVEAGDEADYYCQVWDTSSDHVLFGGGTKLTVL
chain 2: B2 chain 1
